In the supplement of paper PMC7877785:
± gives the uncertainty stated by the source.

Experiment: self-splicing fitness, log relative to wild type (ln ratio); higher = more splicing; Tetrahymena group I intron in knt gene, E. coli kanamycin selection, DiMSum; sequences stand for … in CUCUCU…GGAGGGAAAAGUUAUCAGGCAUGCACCUGGUAGCUAGUCUUUAAACCAAUAGAUUGCAUCGGUUUAAAAGGCAAGACCGUCAAAUUGCGGGAAAGGGGUCAACAGCCGUUCAGUACCAAGUCUCAGGGGAAACUUUGAGAUGGCCUUGCAAAGGGUAUGGUAAUAAGCUGACGGACAUGGUCCUAACCACGCAGCCAAGUCCUAAGUCAACAGAUCUUCUGUUGAUAUGGAUGCAGUUCACAGACUAAAUGUCGGUCGGGGAAGAUGUAUUCUUCUCAUAAGAUAUAGUCGGACCUCUCCUUAAUGGGAGCUAGCGGAUGAAGUGAUGCAACACUGGAGCCGCUGGGAACUAAUUUGUAUGCGAAAGUAUAUUGAUUAGUUUUGGAGUACUCGUGGUCG
Method in brief: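 Colonies from six replicate transformations of E. coli BL21(DE3) were pooled and amplicon-sequenced on an Illumina HiSeq 2500. The library placed an intron with all eight P1ex-region nucleotides randomised inside the knt kanamycin-resistance gene on pET-22b(+), and cells grew overnight at 37°C or 30°C on LB agar with or without 25 μg/mL kanamycin (plus 100 μg/mL carbenicillin, 50 μM IPTG, 0.2% rhamnose). Fitness is the DiMSum error-weighted combination of wild-type-normalised replicate fold changes, kanamycin versus none.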

For UUUGAGCAAUAUUACGGAGC, the “self-splicing fitness (ln)” value (30 °C) was -2.02 ± 0.49.
In the case of UUUGAGCAAUAUUACGGAGU, the “self-splicing fitness (ln)” value (30 °C) is reported as -2.49 ± 0.28.
In the case of UUUGAGCAAUAUUACGGCUA, the “self-splicing fitness (ln)” value (30 °C) is reported as -0.914 ± 0.23 and the “self-splicing fitness (ln)” value (37 °C) is reported as -1.2 ± 0.21.
With UUUGAGCAAUAUUACGGUUC the “self-splicing fitness (ln)” value (30 °C) was -3.67 ± 0.37 and the “self-splicing fitness (ln)” value (37 °C) was -3.69 ± 0.46.
With UUUGAGCAAUAUUACGUGGA the “self-splicing fitness (ln)” value (30 °C) was -2.53 ± 0.21 and the “self-splicing fitness (ln)” value (37 °C) was -2.37 ± 0.22.
With UUUGAGCAAUAUUACGUUAG the “self-splicing fitness (ln)” value (37 °C) was -1.73 ± 0.35.
With UUUGAGCAAUAUUACGUUAU the “self-splicing fitness (ln)” value (30 °C) was -3.92 ± 0.21 and the “self-splicing fitness (ln)” value (37 °C) was -1.9 ± 0.16.
In the case of UUUUAGCAAUAUUACGACAG, the “self-splicing fitness (ln)” value (30 °C) is reported as -0.158 ± 0.23 and the “self-splicing fitness (ln)” value (37 °C) is reported as 0.172 ± 0.27.
With UUUUAGCAAUAUUACGCAAA the “self-splicing fitness (ln)” value (30 °C) was -1.98 ± 0.49 and the “self-splicing fitness (ln)” value (37 °C) was -1.47 ± 0.36.
With UUUUAGCAAUAUUACGCGUU the “self-splicing fitness (ln)” value (30 °C) was -2.55 ± 0.18 and the “self-splicing fitness (ln)” value (37 °C) was -2.61 ± 0.19.
In the case of UUUUAGCAAUAUUACGCUCG, the “self-splicing fitness (ln)” value (30 °C) is reported as -0.861 ± 0.14 and the “self-splicing fitness (ln)” value (37 °C) is reported as -0.128 ± 0.16.
For UUUUAGCAAUAUUACGCUCU, the “self-splicing fitness (ln)” value (30 °C) was -0.0349 ± 0.23 and the “self-splicing fitness (ln)” value (37 °C) was -0.135 ± 0.18.
For UUUUAGCAAUAUUACGCUGU, the “self-splicing fitness (ln)” value (30 °C) was -3.26 ± 0.34 and the “self-splicing fitness (ln)” value (37 °C) was -1.98 ± 0.33.
In the case of UUUUAGCAAUAUUACGGCAC, the “self-splicing fitness (ln)” value (37 °C) is reported as -0.642 ± 0.28.
In the case of UUUUAGCAAUAUUACGGCAG, the “self-splicing fitness (ln)” value (30 °C) is reported as -0.809 ± 0.11 and the “self-splicing fitness (ln)” value (37 °C) is reported as -0.727 ± 0.15.
For UUUUAGCAAUAUUACGGCGA, the “self-splicing fitness (ln)” value (30 °C) was -0.835 ± 0.17 and the “self-splicing fitness (ln)” value (37 °C) was 0.114 ± 0.18.
With UUUUAGCAAUAUUACGGCUA the “self-splicing fitness (ln)” value (30 °C) was -2.21 ± 0.44 and the “self-splicing fitness (ln)” value (37 °C) was -0.365 ± 0.31.
In the case of UUUUAGCAAUAUUACGGGAC, the “self-splicing fitness (ln)” value (30 °C) is reported as -2.5 ± 0.26 and the “self-splicing fitness (ln)” value (37 °C) is reported as -1.83 ± 0.47.
With UUUUAGCAAUAUUACGGGAG the “self-splicing fitness (ln)” value (30 °C) was -0.728 ± 0.16 and the “self-splicing fitness (ln)” value (37 °C) was -1.79 ± 0.29.
For UUUUAGCAAUAUUACGGGCA, the “self-splicing fitness (ln)” value (30 °C) was -1.86 ± 0.39 and the “self-splicing fitness (ln)” value (37 °C) was -0.575 ± 0.27.
With UUUUAGCAAUAUUACGGUAU the “self-splicing fitness (ln)” value (30 °C) was -2.87 ± 0.32 and the “self-splicing fitness (ln)” value (37 °C) was -3.11 ± 0.47.
With UUUUAGCAAUAUUACGUAAG the “self-splicing fitness (ln)” value (30 °C) was -0.681 ± 0.13 and the “self-splicing fitness (ln)” value (37 °C) was -0.523 ± 0.14.
With UUUUAGCAAUAUUACGUACG the “self-splicing fitness (ln)” value (30 °C) was -2.14 ± 0.37 and the “self-splicing fitness (ln)” value (37 °C) was -0.297 ± 0.33.
With UUUUAGCAAUAUUACGUCGA the “self-splicing fitness (ln)” value (30 °C) was -0.866 ± 0.12 and the “self-splicing fitness (ln)” value (37 °C) was 0.0877 ± 0.14.
In the case of UUUUAGCAAUAUUACGUUCG, the “self-splicing fitness (ln)” value (30 °C) is reported as -0.683 ± 0.11 and the “self-splicing fitness (ln)” value (37 °C) is reported as -1.34 ± 0.12.
In the case of UUUUAGCAAUAUUACGUUCU, the “self-splicing fitness (ln)” value (30 °C) is reported as -3.48 ± 0.37 and the “self-splicing fitness (ln)” value (37 °C) is reported as -1.17 ± 0.17.
